The target in this experiment is synthetic sugar epitope. The experiment can be described thus: Biacore (SPR).

For orientation: Kd means the free concentration of one partner at which half of the binding sites on the other are occupied at equilibrium, for simple one-to-one binding.

B1: IgG1 (antibody, V domains shown)
VH: QVQLVQSGAEVKKPGASVKVSCKASGFSFTTYWITWVRQAPGQGLEWIGMIHPSDAETRLSQTFKDKATLTADKSTSTAYMELSSLRSEDTAVYYCARDFDVWGQGTLVTVSS
VL: DVVMTQSPLSLPVTLGQPASISCRSSQNIVHQNGQTYLGWYLQKPGQSPQLLIFRVSNRFSGVPDRFSGSGSGTDFTLKISRVEAEDVGVYYCFQGSHIPRTFGQGTRLEIK
B1 displayed an equilibrium dissociation constant (Kd) of 3.9 nM.

B2: IgG4PE (antibody, V domains shown)
VH: QVQLVQSGAEVKKPGASVKVSCKASGFSFTTYWITWVRQAPGQGLEWIGMIHPSDAETRLSQTFKDKATLTADKSTSTAYMELSSLRSEDTAVYYCARDFDVWGQGTLVTVSS
VL: DVVMTQSPLSLPVTLGQPASISCRSSQNIVHQNGQTYLGWYLQKPGQSPQLLIFRVSNRFSGVPDRFSGSGSGTDFTLKISRVEAEDVGVYYCFQGSHIPRTFGQGTRLEIK
B2 came in with a dissociation constant Kd of 3.1 nM.

The values are drawn from patent publication US20250090700A1 (published 2025).
